B1: ssm.pk0026.g11: soybean type II GST encoded by cDNA insert in clone ssm.pk0026.g11 (protein)
chain: MASASVGKELTLYSYWRSSCSHRVRIALNLKGLKYEYKPVNLLKGEQSRPEFLQLNPVGCVPVLVDDHVVLYDSFAIIMYLEDKYPHNPLLPHDIYKRAINFQAASVVSSTIQPLHNLSLLNYIGEKVGPDEKLPWAQSIIRRGFKALEKLLKDHTGRYATGDEVFLADIFLAPQLHAAFKRFNIHMNEFPILARLHETYNEIPAFQEALPENQPDAVH
B2: ssl.pk0002.f7: soybean type III GST encoded by cDNA insert in clone ss1.pk0002.f7 (protein)
chain: MADGVVLLDTWASMFGMRVRIALAEKGVEYEYKEENLRNKSPLLLQMNPIHKKIPVLIHNGKPICESAIIVQYIDEVWNDKAPILPSDPYERAQARFWVDYIDKKVYDTWRKMWLSKGEEHEAGKKEFISIFKQLEETLSDKAYYGSDTFGFLDIGLIPFYSWFYTFETYGNFKMEEECPKLVAWAKRCMQREAVSKSLS
B3: se1.pk0017.f5: soybean type IV GST encoded by cDNA insert in clone se1.pk0017.f5 (protein)
chain: MASLGVRPVLPPPLTSISDPPPLFDGTTRLYISYSCPYAQRVWIARNYKGLQDKINLVPINLQDRPAWYKEKVYPENKVPSLEHNGKVLGESLDLIKYVDANFEGTPLFPSDPAKKEFGEQLISHVDTFSKDLFVSLKGDAVQQASPAFEYLENALGKFDDGPFLLGQFSLVDIAYIPFVERFQIVFAEVFKHDITEGRPKLATWFEELNKLNAYTETRVDPQEIVDLFKKRFLPQQ
B4: se1.27b04: soybean type I GST encoded by cDNA insert in clone se1.27b04 (protein)
chain: MICLHEKEVDFELVPVNVFAAEHKQPPFLSKNPFGFIPVLEDGDLTLFESRAITAYVAEKFKETEPDLIRHKDAKEAALVKVWTEVESHYYEPAVSPIIYEYFVAPFQGKEPDKSVIDTNVEKLKTVLDVYEAKLSSTKYLAGDFYSLADLSHVSETHYLMQTPCASMINELPHVKAWWEDISSRPAFNKVVGGMSFGQNH

Legend:
Format in all cases: biochemical
Details in all cases: 0.4 mM electrophilic substrate, 4 mM glutathione, 0.1 M MOPS pH 7.0, corrected for uncatalyzed reaction
[1] = GST conjugation activity with chlorimuron ethyl (HPLC)
Description: (§1) The GST enzymes, expressed and purified as described in Example 5 were screened for their ability to metabolize a variety of substrates. Substrates tested included the three herbicide electrophilic substrates chlorimuron ethyl, alachlor, and Atrazine, and four model electrophilic substrates, 1-chloro-2, 4-dinitro-benzene (CDNB), ethacrynic acid, t-stilbene oxide, and 1,2-epoxy-3-(p-nitro-phenoxy) propane. The enzymes were purified as described in Example 5 and used in the following assay.
(§2) For each enzyme, the conjugation reaction with each electrophilic substrate was performed by incubating 0.3 to 30 μg enzyme in 0.1 M MOPS (pH 7.0) containing 0.4 mM of the electrophilic substrate. The reaction was inititated by the addition of glutathione to a final concentration of 4 mM. After 5 to 30 min, the reaction was terminated by the addition of 45 μL acetonitrile, microfuged for 10 min to remove precipitated protein, and then the supematent was removed and added to 65 μL of water. This sample was chromatographed on a Zorbax C8 reverse phase HPLC column (3 μm particle size, 6.2 mm×8 cm) using a combination of linear gradients (flow=1.5 mL/min) of 1% H3 PO4 in water (solvent A) and 1% H3 PO4 in acetonitile. The gradient started with 5% solvent B, progressing from 5% to 75% solvent B between 1 and 10 min, and from 75% to 95% solvent B between 10 and 12 min. Control reactions without enzyme were performed to correct for uncatalyzed reaction. Quantitation of metabolites were based on an assumption that the extinction coefficient of the conjugate was identical to that of the electrophilic substrate.
(§3) Activities are related to the activity of a known and previously isolated and purified GST enzyme, GH2/4 (also called GST 26) (Czarnecka et al., Plant Molecular Biology 3:45-58 (1984); Ulmasoz et al., Plant Physiol 108:919-927 (1995)).

[2] = GST conjugation activity with alachlor (HPLC)
Description: as §1, §2, §3

[3] = GST conjugation activity with Atrazine (HPLC)
Description: as §1, §2, §3

[4] = GST conjugation activity with CDNB (HPLC)
Description: as §1, §2, §3

[5] = GST conjugation activity with ethacrynic acid (HPLC)
Description: as §1, §2, §3

[6] = GST conjugation activity with t-stilbene oxide (HPLC)
Description: as §1, §2, §3

[7] = GST conjugation activity with 1,2-epoxy-3-(p-nitrophenoxy)propane (HPLC)
Description: as §1, §2, §3

Molecule	Activity of soybean GST enzyme, Chlorimuron Ethyl [1] [nmol/min/mg]	Activity of soybean GST enzyme, Alachlor [2] [nmol/min/mg]	Activity of soybean GST enzyme, Atrazine [3] [nmol/min/mg]	Activity of soybean GST enzyme, CDNB [4] [nmol/min/mg]	Activity of soybean GST enzyme, Ethacrynic Acid [5] [nmol/min/mg]	Activity of soybean GST enzyme, T-Stilbene Oxide [6] [nmol/min/mg]	Activity of soybean GST enzyme, 1,2-epoxy-3-(p-nitrophenoxy)propane [7] [nmol/min/mg]
B1	0.0	0	0.00	15	5	0.04	2
B2	0.9	30	0.00	2576	68	0.16	10
B3	0.0	0	0.00	30	3	0.15	0
B4	0.1	0	0.00	15	11	0.00	0

— US6168954A, “Soybean glutathione-S-transferase enzymes” (E. I. du Pont de Nemours & Company, priority 1999, dated 2001)
